{"source": "paper PMC11319651", "about": "“Distinct conformational states enable transglutaminase 2 to promote cancer cell survival versus cell death” (Communications Biology, 2024)", "molecules": {"B1": {"name": "TG2 R580K mutant (enzyme, human)", "chain": "MAEELVLERCDLELETNGRDHHTADLCREKLVVRRGQPFWLTLHFEGRNYEASVDSLTFSVVTGPAPSQEAGTKARFPLRDAVEEGDWTATVVDQQDCTLSLQLTTPANAPIGLYRLSLEASTGYQGSSFVLGHFILLFNAWCPADAVYLDSEEERQEYVLTQQGFIYQGSAKFIKNIPWNFGQFEDGILDICLILLDVNPKFLKNAGRDCSRRSSPVYVGRVVSGMVNCNDDQGVLLGRWDNNYGDGVSPMSWIGSVDILRRWKNHGCQRVKYGQCWVFAAVACTVLRCLGIPTRVVTNYNSAHDQNSNLLIEYFRNEFGEIQGDKSEMIWNFHCWVESWMTRPDLQPGYEGWQALDPTPQEKSEGTYCCGPVPVRAIKEGDLSTKYDAPFVFAEVNADVVDWIQQDDGSVHKSINRSLIVGLKISTKSVGRDEREDITHTYKYPEGSSEEREAFTRANHLNKLAEKEETGMAMRIRVGQSMNMGSDFDVFAHITNNTAEEYVCRLLLCARTVSYNGILGPECGTKYLLNLNLEPFSEKSVPLCILYEKYRDCLTESNLIKVRALLVEPVINSYLLAEKDLYLENPEIKIRILGEPKQKRKLVAEVSLQNPLPVALEGCTFTVEGAGLTEEQKTVEIPDPVEAGEEVKVRMDLLPLHMGLHKLVVNFESDKLKAVKGFRNVIIGPA", "notes": "human transglutaminase 2 (TGM2), UniProt P21980, with the substitution R580K; The methods describe expression and purification only for TG2 in general; also called TG R580K"}}, "key": {"Transglutaminase 2 (TG2)": {"biological_target": "T1, Transglutaminase 2 (TG2) (Homo sapiens, UniProt P21980)", "T1 construct": "gene TGM2; N-terminal six-histidine tagged human TG2", "T1 sequence (P21980 1-687)": "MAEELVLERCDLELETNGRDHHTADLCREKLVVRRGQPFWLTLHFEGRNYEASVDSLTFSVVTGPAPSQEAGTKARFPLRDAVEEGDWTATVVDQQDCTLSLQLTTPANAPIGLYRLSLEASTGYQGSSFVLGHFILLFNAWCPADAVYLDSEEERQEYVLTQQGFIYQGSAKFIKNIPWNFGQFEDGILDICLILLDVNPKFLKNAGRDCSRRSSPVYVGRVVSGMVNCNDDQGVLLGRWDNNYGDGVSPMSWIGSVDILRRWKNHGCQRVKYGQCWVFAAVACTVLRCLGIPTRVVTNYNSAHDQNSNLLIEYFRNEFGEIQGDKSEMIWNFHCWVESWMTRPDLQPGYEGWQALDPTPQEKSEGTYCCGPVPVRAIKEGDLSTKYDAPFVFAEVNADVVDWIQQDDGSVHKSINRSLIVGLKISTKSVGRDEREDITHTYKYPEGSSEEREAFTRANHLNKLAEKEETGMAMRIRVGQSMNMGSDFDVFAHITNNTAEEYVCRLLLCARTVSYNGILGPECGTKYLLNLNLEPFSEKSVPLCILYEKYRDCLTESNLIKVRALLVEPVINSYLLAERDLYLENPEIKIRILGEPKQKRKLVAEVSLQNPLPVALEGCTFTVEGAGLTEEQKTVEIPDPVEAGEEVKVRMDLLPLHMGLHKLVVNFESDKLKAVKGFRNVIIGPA", "assay": "biochemical", "set-up": "inhibition of TG2 protein crosslinking activity, gel-based read-out", "excerpt": "(the LM-series, Fig. S6)."}, "[1]": {"biological_target": "Transglutaminase 2 (TG2), wildtype, recombinant human (human) (UniProt P21980)", "assay": "SAXS; time-resolved SAXS, Kenics chaotic advection mixer, TG2 1 mg/mL final, 2 mM Ca2+, 0-631 ms; deconvolution into closed state monomer and open state dimer"}, "[2]": {"biological_target": "Transglutaminase 2 (TG2), wildtype, recombinant human (human) (UniProt P21980)", "assay": "SAXS; static SAXS, 25 µM (2 mg/mL) TG2 with 2 mM Ca2+ for 5 min, TG2 Storage Buffer; DAMMIF envelopes (P1, P2), CRYSOL fit to the open state dimer; deconvolution into monomer and dimer"}, "[3]": {"biological_target": "the molecule itself", "assay": "SAXS; static SAXS, TG2 R580K with GTP at concentrations greater than 1 mM (up to 5 mM); CRYSOL fit to the open state dimer (from crystal packing of PDB 2Q3Z)"}}}
{"molecule": "O=C1NC(=O)N(c2cccc(Cl)c2)C(=O)/C1=C/Nc1ccc(Cl)c(CN2C(=O)c3ccccc3C2=O)c1", "note": "[LM11]", "values": [{"measurement": "IC50", "setting": "Transglutaminase 2 (TG2)", "result": 10, "unit": "µM"}]}
{"molecule": "Transglutaminase 2 (TG2), wildtype, recombinant human (from UniProt P21980 1-687) (enzyme)", "values": [{"measurement": "percent dimer at t = 0 ms", "setting": "[1]", "result": 61, "unit": "%"}, {"measurement": "percent dimer after five minutes with Ca2+", "setting": "[2]", "result": 100, "unit": "%"}, {"measurement": "stoichiometry N", "setting": "[2]", "result": 2}]}
{"molecule": "B1", "values": [{"measurement": "stoichiometry N", "setting": "[3]", "result": 2}]}
